Data as given in US20240189392A1.

How the values were obtained:
Test in all cases: cell-based or functional assay
human RXFP4 (human) = human RXFP4 (human) (UniProt Q8TDU9)
human RXFP3 (human) = human RXFP3 (human) (UniProt Q9NSD7)
human RXFP2 (human) = human RXFP2 (human) (UniProt Q8WXD0)
Sequence of human RXFP2 (human) (Q8WXD0 whole entry): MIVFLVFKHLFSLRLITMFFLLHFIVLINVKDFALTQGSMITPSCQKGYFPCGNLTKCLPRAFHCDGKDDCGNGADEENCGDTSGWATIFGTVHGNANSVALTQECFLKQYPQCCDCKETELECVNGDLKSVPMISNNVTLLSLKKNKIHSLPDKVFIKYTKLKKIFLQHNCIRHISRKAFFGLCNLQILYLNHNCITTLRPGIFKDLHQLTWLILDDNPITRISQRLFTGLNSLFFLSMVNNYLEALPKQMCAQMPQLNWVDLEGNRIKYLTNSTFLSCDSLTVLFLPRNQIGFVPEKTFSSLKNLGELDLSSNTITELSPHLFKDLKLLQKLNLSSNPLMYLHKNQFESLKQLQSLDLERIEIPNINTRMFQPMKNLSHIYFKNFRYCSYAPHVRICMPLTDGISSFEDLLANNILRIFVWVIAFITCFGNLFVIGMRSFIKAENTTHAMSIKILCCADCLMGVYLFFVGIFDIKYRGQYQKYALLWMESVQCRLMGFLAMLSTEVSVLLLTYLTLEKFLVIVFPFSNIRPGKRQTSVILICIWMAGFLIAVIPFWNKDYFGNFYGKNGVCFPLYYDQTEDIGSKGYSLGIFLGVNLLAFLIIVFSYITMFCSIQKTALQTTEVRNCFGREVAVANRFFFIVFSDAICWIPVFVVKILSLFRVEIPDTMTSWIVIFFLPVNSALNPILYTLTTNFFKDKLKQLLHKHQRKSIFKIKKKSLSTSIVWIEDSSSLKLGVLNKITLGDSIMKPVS

Sequence of human RXFP4 (human) (Q8TDU9 whole entry): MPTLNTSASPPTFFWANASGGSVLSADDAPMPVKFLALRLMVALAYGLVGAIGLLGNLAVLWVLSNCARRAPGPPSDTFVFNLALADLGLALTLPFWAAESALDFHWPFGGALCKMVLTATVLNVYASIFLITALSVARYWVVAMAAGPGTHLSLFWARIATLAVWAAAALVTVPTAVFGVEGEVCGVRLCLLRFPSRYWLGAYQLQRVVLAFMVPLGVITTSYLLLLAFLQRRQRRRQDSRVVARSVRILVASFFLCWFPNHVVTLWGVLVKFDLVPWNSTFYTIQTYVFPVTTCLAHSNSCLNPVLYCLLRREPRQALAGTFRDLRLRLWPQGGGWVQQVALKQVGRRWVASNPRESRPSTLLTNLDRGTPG
Sequence of human RXFP3 (human) (Q9NSD7 whole entry): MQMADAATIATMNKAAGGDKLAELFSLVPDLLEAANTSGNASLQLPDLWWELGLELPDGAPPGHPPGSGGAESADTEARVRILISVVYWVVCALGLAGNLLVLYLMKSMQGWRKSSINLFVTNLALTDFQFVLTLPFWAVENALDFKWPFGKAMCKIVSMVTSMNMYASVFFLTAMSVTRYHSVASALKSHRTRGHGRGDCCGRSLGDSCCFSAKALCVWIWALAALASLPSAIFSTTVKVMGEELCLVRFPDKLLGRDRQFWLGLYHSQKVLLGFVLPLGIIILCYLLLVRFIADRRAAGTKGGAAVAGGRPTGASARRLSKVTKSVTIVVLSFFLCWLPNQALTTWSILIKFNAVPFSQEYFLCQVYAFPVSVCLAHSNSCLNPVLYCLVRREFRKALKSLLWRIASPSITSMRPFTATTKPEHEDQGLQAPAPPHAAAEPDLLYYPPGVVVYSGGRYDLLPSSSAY

Substance | cAMP Assay EC50 (nM), inhibition of forskolin-induced cAMP, human RXFP4/CHO-K1 cells (human RXFP4 (human)) [nM] | maximal inhibition of forskolin-induced cAMP, human RXFP4/CHO-K1 cells (human RXFP4 (human)) [%] | cAMP Assay EC50 (nM), inhibition of forskolin-induced cAMP, human RXFP3/CHO-K1 cells (human RXFP3 (human)) [nM] | cAMP Assay EC50 (nM), human RXFP2/CHO-K1 cells (human RXFP2 (human)) [nM]
recombinant human relaxin 3 (H3-RLX) (from UniProt Q8WXF3 26-142) (ligand) | 2.8 | 40 | 0.6 | 
insulin like 3 protein (INSL3) (from UniProt P51460 21-131) (ligand) |  |  |  | 0.46
